Patent US20200339657A1, “PEPTIDES AND COMBINATION THEREOF FOR USE IN THE IMMUNOTHERAPY AGAINST CANCERS” (Immatics Biotechnologies GmbH, priority 2017, published 2020)

How the values were obtained:
CD8+ T cells = assay: In vitro immunogenicity: T-cell priming with aAPCs loaded with peptide/MHC and anti-CD28, multimer readout; type: cell-based, human; settings: HLA A*02
HLA-A*02:01 = HLA-A*02:01 (Homo sapiens, UniProt P04439, D140Y/D185E/D98H/E176V/E277Q/G131W/G231S/I119V/I121R/I166T/I218V/L300P/L318F/N151K/N90K/P208A/P217A/Q86G/Q94H/R138H/R169H/T345S); assay: MHC binding assay (UV-ligand exchange, β2m ELISA); settings: for Peptide exchange: peptide exchange yield, binding to HLA-A*02:01

Row | Substance | Peptide exchange (HLA-A*02:01) | bind to HLA-A*02 (HLA-A*02:01) | Wells positive [%] (CD8+ T cells)
1 | 56 (FLNQIYTQL; listed as Homo sapiens) [compound 56] | “++++” (>75% = ++++) | – | “+++” (50%-69% = +++)
2 | 249 (ALFPERITV; listed as Homo sapiens) [compound 249] | “++++” (>75% = ++++) | – | “++” (20%-49% = ++)
3 | 46 (VLITGLPLI; listed as Homo sapiens) [compound 46] | “++++” (>75% = ++++) | – | –
4 | 40 (KIDDIWNLEV; listed as Homo sapiens) [compound 40] | “+++” (>50 = +++) | – | –
5 | 54 (YLPPTDPRMSV; listed as Homo sapiens) [compound 54] | “++++” (>75% = ++++) | – | –
6 | 51 (ALAAELNQL; listed as Homo sapiens) [compound 51] | “+++” (>50 = +++) | – | –
7 | KTLGKLWRL (listed as Homo sapiens) [SEQ ID NO: 267] | – | binds to HLA-A*02 | –
8 | 47 (YQDSWFQQL; listed as Homo sapiens) [compound 47] | “+++” (>50 = +++) | – | –

The next lines start with results.

Row | Peptide exchange (HLA-A*02:01) | bind to HLA-A*02 (HLA-A*02:01) | Substance | Wells positive [%] (CD8+ T cells)
9 | “++++” (>75% = ++++) | – | 42 (KMMALVAEL; listed as Homo sapiens) [compound 42] | “++++” (>= 70% = ++++)
10 | “++++” (>75% = ++++) | – | 38 (VMLNSNVLL; listed as Homo sapiens) [compound 38] | “+” (<20% = +)
11 | “++++” (>75% = ++++) | – | 60 (GLPDFVKEL; listed as Homo sapiens) [compound 60] | “++” (20%-49% = ++)
12 | “++++” (>75% = ++++) | – | 43 (GLMTIVTSL; listed as Homo sapiens) [compound 43] | “++” (20%-49% = ++)
13 | “+++” (>50 = +++) | – | 50 (ELMPRVYTL; listed as Homo sapiens) [compound 50] | “+” (<20% = +)
14 | “+++” (>50 = +++) | – | 251 (RLASRPLLL; listed as Homo sapiens) [compound 251] | –
15 | “+” (>10% = +) | – | 250 (KMILKMVQL; listed as Homo sapiens) [compound 250] | “++” (20%-49% = ++)
16 | “++++” (>75% = ++++) | – | 57 (GLTGVIMTI; listed as Homo sapiens) [compound 57] | “++++” (>= 70% = ++++)
17 | “++++” (>75% = ++++) | – | 59 (KLHEIYIQA; listed as Homo sapiens) [compound 59] | –
